Results as given in patent US20200400662A1.
Where “and” joins values, the source holds several entries; their conditions need not be identical. Equal entries are not always repeated.

Molecular target: Drug A
Experiment: cell-based or functional assay

| Binder | hemagglutination of Drug A-coated erythrocytes with anti-IgG; molar excess of Fab that prevented it (fold molar excess relative to Drug A) |
| --- | --- |
| Fab fragment of Antibody C (Fab, V domains shown) VH: DVQLVESGGGVVRPGESLRLSCEASGFTFSSNAMSWVRQAPGKGLEWVAGISSGSDTYYGDSVKGRLTISRDNSKNILYLQMNSLTAEDTAVYYCARETWNHLFDYWGQGTLVTVSS VL: SYELTQPPSVSVSPGQTARITCSGGSYSSYYYAWYQQKPGQAPVTLIYSDDKRPSNIPERFSGSSSGTTVTLTISGVQAEDEADYYCGGYDQSSYTNPFGGGTKLTVL | 200 and 400 |
| Fab fragment of Antibody A (Fab, V domains shown) VH: DVQLVESGGGVVRPGESLRLSCAASGFSFSSYAMNWVRQAPGEGLEWVSRINSGGGGTDYAESVKGRFTISRDNSENTLYLQMNSLRAEDTAVYYCAKQYDWNSFFDYWGLGALVTVSS VL: ETVLTQSPATLSVSPGERATLSCRASQTVGSKLAWHQQKPGQAPRLLIYDATNRATGISDRFSGSGSGTDFTLTISSLQTEDSAVYYCQQYYYWPPYRFGGGTKVEIK | 2500 |
